The chains are these.
B1: HAKA (antibody, human IgG1, V domains shown)
VH: EVQLVESGGGLVQPGGSLRLSCAASGFSLTIYGAHWVRQAPGKGLEWVSVIWAGGSTNYNSALMSRFTISKDNSKNTVYLQMNSLRAEDTAVYYCARDGSSPYYYSMEYWGQGTTVTVSS
VL: EIVLTQSPATLSLSPGERATLSCSATSSVSYMHWFQQKPGQAPRLLIYSTSNLASGIPARFSGSGSGTDFTLTISSLEPEDFAVYYCQQRSSYPFTFGPGTKLDIK
notes: human IgG1/kappa
B2: HEKG (antibody, human IgG1, V domains shown)
VH: B1 VH with S49G
VL: B1 VL with F35Y
notes: human IgG1/kappa
B3: HCKG (antibody, human IgG1, V domains shown)
VH: B1 VH with A24V
VL: B1 VL with F35Y
notes: human IgG1/kappa
B4: HCKD (antibody, human IgG1, V domains shown)
VH: B1 VH with A24V
VL: B1 VL with L46W
notes: human IgG1/kappa
B5: HEKD (antibody, human IgG1, V domains shown)
VH: B1 VH with S49G
VL: B1 VL with L46W
notes: human IgG1/kappa
B6: HAKFmut (antibody, human IgG1, V domains shown)
VH: B1 VH
VL: B1 VL with F70Y, F95Y
notes: human IgG1/kappa
B7: HDKC (antibody, human IgG1, V domains shown)
VH: B1 VH with V48L
VL: B1 VL with V3I
notes: human IgG1/kappa
B8: HEKC (antibody, human IgG1, V domains shown)
VH: B1 VH with S49G
VL: B1 VL with V3I
notes: human IgG1/kappa
B9: HBKA (antibody, human IgG1, V domains shown)
VH: B1 VH with A24V, V48L, S49G, F67L, T68S
VL: B1 VL
notes: human IgG1/kappa
B10: HAKF (antibody, human IgG1, V domains shown)
VH: B1 VH
VL: B1 VL with F70Y
notes: human IgG1/kappa
B11: HEKB (antibody, human IgG1, V domains shown)
VH: B1 VH with S49G
VL: B1 VL with V3I, L46W, I57V, F70Y
notes: human IgG1/kappa
B12: HDKA (antibody, human IgG1, V domains shown)
VH: B1 VH with V48L
VL: B1 VL
notes: human IgG1/kappa
B13: HBKG (antibody, human IgG1, V domains shown)
VH: B1 VH with A24V, V48L, S49G, F67L, T68S
VL: B1 VL with F35Y
notes: human IgG1/kappa
B14: HBKD (antibody, human IgG1, V domains shown)
VH: B1 VH with A24V, V48L, S49G, F67L, T68S
VL: B1 VL with L46W
notes: human IgG1/kappa
B15: HCKB (antibody, human IgG1, V domains shown)
VH: B1 VH with A24V
VL: B1 VL with V3I, L46W, I57V, F70Y
notes: human IgG1/kappa
B16: HBKB (antibody, human IgG1, V domains shown)
VH: B1 VH with A24V, V48L, S49G, F67L, T68S
VL: B1 VL with V3I, L46W, I57V, F70Y
notes: human IgG1/kappa
B17: HDKFmut (antibody, human IgG1, V domains shown)
VH: B1 VH with V48L
VL: B1 VL with F70Y, F95Y
notes: human IgG1/kappa
B18: HAKD (antibody, human IgG1, V domains shown)
VH: B1 VH
VL: B1 VL with L46W
notes: human IgG1/kappa
B19: HCKA (antibody, human IgG1, V domains shown)
VH: B1 VH with A24V
VL: B1 VL
notes: human IgG1/kappa
B20: HAKE (antibody, human IgG1, V domains shown)
VH: B1 VH
VL: B1 VL with I57V
notes: human IgG1/kappa
B21: HDKB (antibody, human IgG1, V domains shown)
VH: B1 VH with V48L
VL: B1 VL with V3I, L46W, I57V, F70Y
notes: human IgG1/kappa
B22: HCKF (antibody, human IgG1, V domains shown)
VH: B1 VH with A24V
VL: B1 VL with F70Y
notes: human IgG1/kappa
B23: HAKG (antibody, human IgG1, V domains shown)
VH: B1 VH
VL: B1 VL with F35Y
notes: human IgG1/kappa
B24: HCKE (antibody, human IgG1, V domains shown)
VH: B1 VH with A24V
VL: B1 VL with I57V
notes: human IgG1/kappa
B25: HBKFmut (antibody, human IgG1, V domains shown)
VH: B1 VH with A24V, V48L, S49G, F67L, T68S
VL: B1 VL with F70Y, F95Y
notes: human IgG1/kappa
B26: HAKB (antibody, human IgG1, V domains shown)
VH: B1 VH
VL: B1 VL with V3I, L46W, I57V, F70Y
notes: human IgG1/kappa
B27: HBKE (antibody, human IgG1, V domains shown)
VH: B1 VH with A24V, V48L, S49G, F67L, T68S
VL: B1 VL with I57V
notes: human IgG1/kappa
B28: HBKF (antibody, human IgG1, V domains shown)
VH: B1 VH with A24V, V48L, S49G, F67L, T68S
VL: B1 VL with F70Y
notes: human IgG1/kappa
B29: HDKE (antibody, human IgG1, V domains shown)
VH: B1 VH with V48L
VL: B1 VL with I57V
notes: human IgG1/kappa
B30: HDKF (antibody, human IgG1, V domains shown)
VH: B1 VH with V48L
VL: B1 VL with F70Y
notes: human IgG1/kappa
B31: HBKC (antibody, human IgG1, V domains shown)
VH: B1 VH with A24V, V48L, S49G, F67L, T68S
VL: B1 VL with V3I
notes: human IgG1/kappa
B32: HDKG (antibody, human IgG1, V domains shown)
VH: B1 VH with V48L
VL: B1 VL with F35Y
notes: human IgG1/kappa
B33: HCKC (antibody, human IgG1, V domains shown)
VH: B1 VH with A24V
VL: B1 VL with V3I
notes: human IgG1/kappa
B34: HAKC (antibody, human IgG1, V domains shown)
VH: B1 VH
VL: B1 VL with V3I
notes: human IgG1/kappa
B35: HDKD (antibody, human IgG1, V domains shown)
VH: B1 VH with V48L
VL: B1 VL with L46W
notes: human IgG1/kappa
B36: HCKFmut (antibody, human IgG1, V domains shown)
VH: B1 VH with A24V
VL: B1 VL with F70Y, F95Y
notes: human IgG1/kappa
B37: mouse 2C4 antibody (antibody, mouse IgG1, kappa)
heavy: QVQLKRASGPGLVAPSQSLSITCTVSGFSLTIYGAHWVRQPPGKGLEWLGVIWAGGSTNYNSALMSRLSISKDNSKSQVFLKINSLQTDDTALYYCARDGSSPYYYSMEYWGQGTSVTVSSAKTTPPSVYPLAPGSAAQTNSMVTLGCLVKGYFPEPVTVTWNSGSLSSGVHTFPAVLESDLYTLSSSVTVPSSPRPSETVTCNVAHPASSTKVDKKIVPRDCGCKPCICTVPEVSSVFIFPPKPKDVLTITLTPKVTCVVVDISKDDPEVQFSWFVDDVEVHTAQTQPREEQFNSTFRSVSELPIMHQDWLNGKEFKCRVNSAAFPAPIEKTISKTKGRPKAPQVYTIPPPKEQMAKDKVSLTCMITDFFPEDITVEWQWNGQPAENYKNTQPIMNTNGSYFVYSKLNVQKSNWEAGNTFTCSVLHEGLHNHHTEKSLSHSPG
light: EIILTQSPAIMSASPGEKVSITCSATSSVSYMHWFQQKPGTSPKLWIYSTSNLASGVPVRFSGSGSGTSYSLTISRMEAEDAATYYCQQRSSYPFTFGSGTKLEIKADAAPTVSIFPPSSEQLTSGGASVVCFLNNFYPKDINVKWKIDGSERQNGVLNSWTDQDSKDSTYSMSSTLTLTKDEYERHNSYTCEATHKTSTSPIVKSFNRNEC
notes: murine IgG1/kappa; also called mo2C4; m2C4

Positions count from the first letter of the chain named. “And” between values parts separate entries of the source, which are not always exact repeats. Identical values can stand only once.

The term EC50 denotes the concentration needed to bring the measured effect to its halfway point.

The target in this experiment is T1, recombinant human Siglec-8 extracellular domain (ECD) (human, UniProt Q9NYZ4 17-363).
T1 construct: extracellular domain; also called Siglec-8 ECD; full Siglec-8 ECD
T1 sequence (Q9NYZ4 17-363): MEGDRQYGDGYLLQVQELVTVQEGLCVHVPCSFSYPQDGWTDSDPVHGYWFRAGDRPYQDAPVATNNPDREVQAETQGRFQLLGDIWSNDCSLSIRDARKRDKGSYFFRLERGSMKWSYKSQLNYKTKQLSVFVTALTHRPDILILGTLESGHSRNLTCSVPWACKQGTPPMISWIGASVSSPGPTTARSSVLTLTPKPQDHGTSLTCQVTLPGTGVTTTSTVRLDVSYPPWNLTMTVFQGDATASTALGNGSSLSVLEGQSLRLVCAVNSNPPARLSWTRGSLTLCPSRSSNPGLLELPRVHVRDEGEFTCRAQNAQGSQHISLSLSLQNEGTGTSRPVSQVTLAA
The experiment in a line: ELISA, coated Siglec-8 ECD. Here is the method:
Binding of recombinant human Siglec-8 extracellular domain (ECD) by chimeric 2E2 and chimeric 2C4 IgG1K antibodies was measured by ELISA. […] Three-fold serial dilutions of a chimeric antibody (ch2E2 or ch2C4) or mouse antibody (m2E2 or m2C4) in 0.2% BSA/TBS (starting concentration was 5000 ng/mL) was added to each coated well. The plate was incubated for 2 hours at room temperature and the wells were subsequently washed before addition of goat-anti-human Fc peroxidase conjugate (1:10000 dilution) or anti-mouse Fc peroxidase conjugate (1:30000 dilution) diluted in 0.2% BSA/TBS solution. The plate was incubated for 45 minutes at room temperature, followed by washing and addition of 30 μL K-blue HRP substrate (SkyBio Ltd) to each well. After incubation at room temperature for 15 minutes, the reaction was stopped by adding 10 μL of Red Stop solution (SkyBio Ltd) to each well. The optical density or the experimental samples was read at 650 nm using the ELISA reader PHERAStar FS (BMG Labtech).
The fully humanized antibody heavy and light chains were combined and compared with the chimeric antibody to determine if replacing the 4 Å and canonical framework residues and interface residues was sufficient to successfully humanize 2E2. Expi293 cells were co-transfected with combinations of different humanized light chain vectors in association with different humanized heavy chain vectors. Siglec-8 antigen was used to measure antibody binding by ELISA as described in Example 1.
On to B1, for which the EC50 is 85 pM and 58 pM.

For the molecule B2, the concentration for a half-maximal effect (EC50) was 302 pM.

Consider B3, for which the EC50 is 273 pM.

As for B4, the EC50 was 49 pM.

B5: the EC50 is 59 pM and 70 pM.

B6: the EC50 came out at 86 pM.

Consider B7, for which the EC50 came out at 57 pM.

On to B8, for which the EC50 is 69 pM and 65 pM.

With B9, the EC50 was 55 pM and 70 pM.

On to B10, for which the EC50 was 78 pM and 62 pM.

B11: the EC50 was 63 pM and 57 pM.

In the case of B12, the EC50 turned out to be 67 pM.

With B13, the EC50 is 212 pM.

B14: the EC50 was 39 pM.

For the molecule B15, the EC50 was found to be 65 pM.

In the case of B16, the EC50 was 56 pM.

As to B17, the concentration giving a half-maximal response (EC50) was found to be 56 pM.

Take B18: the EC50 is 58 pM.

B19: the EC50 was found to be 56 pM.

Turning to B20, the EC50 was 52 pM.

Turning to B21, the EC50 worked out at 55 pM.

Take B22: the EC50 was 50 pM.

Take B23: the EC50 is 189 pM.

Regarding B24, the EC50 was determined as 59 pM.

In the case of B25, the 50% effective concentration (EC50) stood at 48 pM.

Take B26: the EC50 worked out at 71 pM.

With B27, the EC50 was determined as 61 pM.

Consider B28, for which the EC50 was 66 pM and 51 pM.

On to B29, for which the EC50 stood at 65 pM.

Take B30: the EC50 was determined as 57 pM.

In the case of B31, the concentration giving a half-maximal response (EC50) was 33 pM.

Consider B32, for which the concentration for a half-maximal effect (EC50) came to 113 pM.

As for B33, the EC50 came to 58 pM.

As to B34, the EC50 amounted to 66 pM.

Turning to B35, the EC50 is 48 pM.

B36: the EC50 worked out at 78 pM.

B37: the EC50 was found to be 115 pM.

The record behind these values is patent publication US20200054723A1 (ALLAKOS, published 2020).
